The values that follow come from PMC11712212 (Chemical Science, 2024).

Bridge positions count the residues as written; N and C are the ends. Ends that are not written are not given here. Peptide text beside a SMILES is read from it.

The target in experiment [1] is QTGG (Homo sapiens, UniProt P63165). Kind of experiment: Isothermal titration calorimetry. The experiment is classed as binding. In general terms: Isothermal titration calorimetry measures the heat released or taken up as one component is titrated into another.
Experiment [2] addresses DV12 ([…]) (Homo sapiens, UniProt P63165). Kind of experiment: Biolayer interferometry. Format: binding. For orientation: Biolayer interferometry detects binding as a change in optical thickness at a sensor tip.
Experiment [3] addresses SUMO-1 protein (UniProt P63165 1-97). Nature of the experiment: BLI.
Experiment [4] deals with T1, QTGG, short SUMO-1 remnant after trypsin and Glu-C digestion.
T1 sequence (peptide): QTGG
Kind of experiment: ITC.

Chain of SUMO-1 protein (P63165 1-97): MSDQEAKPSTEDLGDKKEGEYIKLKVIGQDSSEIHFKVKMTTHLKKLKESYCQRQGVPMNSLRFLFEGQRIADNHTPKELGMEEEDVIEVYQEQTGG

As to `CC(C)C[C@@H]1NC(=O)[C@H](Cc2c[nH]c3ccccc23)NC(=O)[C@H](CCCCN)NC(=O)[C@H](CCC(=O)O)NC(=O)[C@@H]2CCCN2C(=O)[C@@H](N)CSSC[C@@H](C(=O)O)NC(=O)[C@H]([C@@H](C)O)NC(=O)CNC1=O` [CP-1, CPEKWLGTC] (HELM PEPTIDE1{C.P.E.K.W.L.G.T.C}$PEPTIDE1,PEPTIDE1,1:R3-9:R3$$$V2.0; N-terminus and C-terminus assumed), in experiment [1], the Kd (usually the free concentration of one partner at which half of the binding sites on the other are occupied at equilibrium, for simple one-to-one binding) amounted to 71.8 nM. For the molecule `CC(C)C[C@H](NC(=O)[C@@H](N)CCCCN)C(=O)N[C@@H](CCCNC(=N)N)C(=O)N[C@@H](Cc1c[nH]c2ccccc12)C(=O)N[C@H](C(=O)N[C@@H](CC(=O)O)C(=O)N[C@@H](Cc1ccc(O)cc1)C(=O)N[C@@H](C)C(=O)N[C@@H](CCCCN)C(=O)N[C@@H](CCCCN)C(=O)N[C@@H](CCCNC(=N)N)C(=O)N[C@@H](CCCCN)C(=O)O)[C@@H](C)O` [PEP-4, KLRWTDYAKKRK] (H-KLRWTDYAKKRK-OH), the dissociation constant (Kd) in experiment [2] stood at 2 nM.

In turn, KLRWTDYAKKRK [PEP-4 (KLRWTDYAKKRK)] yielded a dissociation constant (Kd) in experiment [3] of 43.7 nM.

CMTPNPTTC (disulfide 1-9) [CP-2 (…)] displayed a dissociation constant Kd in experiment [4] of 1800 nM. Still for that read-out and setting: the result for CPEKWLGTC (disulfide 1-9) [CP-1 (…), cystine-linked cyclic peptide] reads 71.8 nM.
